According to patent US20070072177A1:

B1: CR04-144 (antibody)
VH: AMAQVQLQELGGGVVQPGRSLRLSCAASGFTFGSYGMHWVRQAPGKGLEWVATISYDGSIKDYADSEKGRFTISRDNSKNTLYLQMNSLRAEDTAVYYCAKGGKTGEFDYWGQGTLVTVSSGTGGSGGTGSGTGGSTDIQLTQSPSSLSASVGDRVTITCRASQGISSYLAWYQQKPGKGPKLLIYAASTLQSGVPSRFSGSGSGTDFSLTISSLQPEDLATYYCQQYDSYPLTFGGGTKVEIKRAAA
VL: B1 VH
B2: CR04-120 (antibody)
VH: AMAEVQLVQSGGGLVQPGRSLRLSCAASGFTFSTYGMHWVRQAPGKGLEWVATISYDGSIKDYADSEKGRFTISRDNSKNTLYLQMNSLRAEDTAVYYCAKGGKTGEFDYWGQGTLVTVSSGTGGSGGTGSGTGGSTDIQLTQSPSTLSASVGDRVTITCRASQGINSYLAWYQQEPGKAPKLLIYAASTLQSGVPSRFSGSGSGTEFTLTISSLQPEDFATYYCQQLNSYPFTFGPGTKVDIKRAAA
VL: B2 VH
B3: CR04-108 (antibody)
VH: AMAEVQLVQSGGGLVQPGGSLRLSCAASGFTFSSYGMHWVRQAPGKGLEWVAVILYDGSDKFYADSVKGRFTISRDNSKDTLYLQMNSLRAEDTAVYYCAKFMIVADDAFDIWGQGTMVTVSSGTGGSGGTGSGTGGSTDIQLTQSPSSLSASVGDRVTITCRASQGISSHLVWYQQKPGKAPKSLIYAASSLQSGVPSRFSGSESATDFTLTISSLQPEDFATYYCQQYYSYPITFGQGTRLEIKRAAA
VL: B3 VH
B4: CR04-140 (antibody)
VH: AMAQMQLVQSGGGVVQPGRSLRLSCAASGFTFSSYGMHWVRQAPGKGLEWVAVILYDGSNKYYADSVKGRFTISRDNSKNALYLQMNSLRAEDTAVYYCAKVTNPGDAFDIWGQGTMVTVSSGTGGSGGTGSGTGGSTDIQMTQSPSSLSASVGDRVTITCRASQGISSALAWYQQKPGKAPKLLIYDASSLESGVPSRFSGSGSGTDFTLTISSLQPEDFATYYCQQFNSYPLTFGGGTKVEIKRAAA
VL: B4 VH

Molecular target: rabies virus glycoprotein (G protein) of strain CVS-11 (rabies virus strain CVS-11) (UniProt O92284)
Assay: cell-based or functional assay

Sequence of rabies virus glycoprotein (G protein) of strain CVS-11 (rabies virus strain CVS-11) (O92284 20-524 limits assumed): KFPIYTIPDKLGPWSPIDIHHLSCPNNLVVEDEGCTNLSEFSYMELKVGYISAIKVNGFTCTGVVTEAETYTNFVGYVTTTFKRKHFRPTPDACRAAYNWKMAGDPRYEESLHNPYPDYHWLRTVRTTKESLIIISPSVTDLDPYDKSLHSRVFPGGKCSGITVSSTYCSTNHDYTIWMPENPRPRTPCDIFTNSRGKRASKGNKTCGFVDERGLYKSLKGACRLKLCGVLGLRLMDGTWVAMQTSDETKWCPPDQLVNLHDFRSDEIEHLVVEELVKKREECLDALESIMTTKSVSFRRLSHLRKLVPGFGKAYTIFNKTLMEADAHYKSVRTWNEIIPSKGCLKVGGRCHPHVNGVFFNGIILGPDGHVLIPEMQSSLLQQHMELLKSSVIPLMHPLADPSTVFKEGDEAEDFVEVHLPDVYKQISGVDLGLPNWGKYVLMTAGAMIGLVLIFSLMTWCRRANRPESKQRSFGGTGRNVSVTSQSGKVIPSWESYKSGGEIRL

Q: For B1, which Neutralizing potency (modified RFFIT) is on record?
A: Its Neutralizing potency (modified RFFIT) is 6250 IU/mg.

Q: How did the Neutralizing potency (modified RFFIT) turn out when B2 was run?
A: The Neutralizing potency (modified RFFIT) was 4940 IU/mg.

Q: How did the Neutralizing potency (modified RFFIT) turn out when B3 was run?
A: Its Neutralizing potency (modified RFFIT) is 4870 IU/mg.

Q: For B4, which Neutralizing potency (modified RFFIT) is on record?
A: The Neutralizing potency (modified RFFIT) was 478 IU/mg.
